The source of these data is patent US20130196336A1.

Assay [1] has as its target serum IgA of the coeliac disease patients that displayed reactivity towards both TG2 and TG6 (Example 5). Kind of assay: anti-TG6 IgA ELISA after preincubation of sera with 22.4 µg/ml soluble TG6.
Assay [2] addresses serum IgA of the gluten ataxia with enteropathy patients that displayed reactivity towards both TG2 and TG6 (Example 5). Described as above.
Assay [3] has as its target serum IgA of gluten ataxia with enteropathy patient GAE 16. Kind of assay: inhibition ELISA: serum preincubated with soluble TG6, then TG2-coated plate, IgA detection.
In assay [4] the target is serum IgA of the coeliac disease patients that displayed reactivity towards both TG2 and TG6 (Example 5). Kind of assay: anti-TG2 IgA ELISA after preincubation of sera with 22.4 µg/ml soluble TG6.
Assay [5] deals with serum IgA of the gluten ataxia with enteropathy patients that displayed reactivity towards both TG2 and TG6 (Example 5). The assay is described as above.
For assay [6], the target named is serum IgG of coeliac disease patient CD1. Kind of assay: inhibition ELISA: serum preincubated with 50 µg/ml soluble TG2, then TG2-coated plate, IgG detection.
Assay [7] deals with serum IgA of gluten ataxia with enteropathy patient GAE 16. The assay is described as follows: inhibition ELISA: serum preincubated with soluble TG2, then TG2-coated plate, IgA detection.
Assay [8] deals with serum IgA of the coeliac disease patients that displayed reactivity towards both TG2 and TG6 (Example 5). Kind of assay: anti-TG6 IgA ELISA after preincubation of sera with 22.4 µg/ml soluble TG2.
Assay [9] has as its target serum IgA of the gluten ataxia with enteropathy patients that displayed reactivity towards both TG2 and TG6 (Example 5). The description is as above.
In assay [10] the target is serum IgA of the coeliac disease patients that displayed reactivity towards both TG2 and TG6 (Example 5). The assay is described as follows: anti-TG2 IgA ELISA after preincubation of sera with 22.4 µg/ml soluble TG2.
For assay [11], the target named is serum IgA of the gluten ataxia with enteropathy patients that displayed reactivity towards both TG2 and TG6 (Example 5). Described as above.
Assay [12] has as its target serum IgA of coeliac disease patient CD1. Kind of assay: inhibition ELISA: serum preincubated with 50 µg/ml soluble TG2, then TG2-coated plate, IgA detection.

B1: recombinant human transglutaminase 6 with C-terminal hexahistidine-tag (enzyme, UniProt O95932 1-706, looked up, part only)
chain: MAGIRVTKVDWQRSRNGAAHHTQEYPCPELVVRRGQSFSLTLELSRALDCEEILIFTMETGPRASEALHTKAVFQTSELERGEGWTAAREAQMEKTLTVSLASPPSAVIGRYLLSIRLSSHRKHSNRRLGEFVLLFNPWCAEDDVFLASEEERQEYVLSDSGIIFRGVEKHIRAQGWNYGQFEEDILNICLSILDRSPGHQNNPATDVSCRHNPIYVTRVISAMVNSNNDRGVVQGQWQGKYGGGTSPLHWRGSVAILQKWLKGRYKPVKYGQCWVFAGVLCTVLRCLGIATRVVSNFNSAHDTDQNLSVDKYVDSFGRTLEDLTEDSMWNFHVWNESWFARQDLGPSYNGWQVLDATPQEESEGVFRCGPASVTAIREGDVHLAHDGPFVFAEVNADYITWLWHEDESRERVYSNTKKIGRCISTKAVGSDSRVDITDLYKYPEGSRKERQVYSKAVNRLFGVEASGRRIWIRRAGGRCLWRDDLLEPATKPSIAGKFKVLEPPMLGHDLRLALCLANLTSRAQRVRVNLSGATILYTRKPVAEILHESHAVRLGPQEEKRIPITISYSKYKEDLTEDKKILLAAMCLVTKGEKLLVEKDITLEDFITIKVLGPAMVGVAVTVEVTVVNPLIERVKDCALMVEGSGLLQEQLSIDVPTLEPQERASVQFDITPSKSGPRQLQVDLVSPHFPDIKGFVIVHVATAK
modifications: full-length C-terminal His6 tag
Consider B1, for which the mean inhibition (%) came to 71% in [1], 61% in assay [2], 1% in [4] and 15% in assay [5]. The molecule also had a percent blocked in [3] of 37%.

B2: recombinant human transglutaminase 2 with N-terminal hexahistidine-tag (enzyme)
chain: HHHHHHAEELVLERCDLELETNGRDHHTADLCREKLVVRRGQPFWLTLHFEGRNYEASVDSLTFSVVTGPAPSQEAGTKARFPLRDAVEEGDWTATVVDQQDCTLSLQLTTPANAPIGLYRLSLEASTGYQGSSFVLGHFILLFNAWCPADAVYLDSEEERQEYVLTQQGFIYQGSAKFIKNIPWNFGQFEDGILDICLILLDVNPKFLKNAGRDCSRRSSPVYVGRVVSGMVNCNDDQGVLLGRWDNNYGDGVSPMSWIGSVDILRRWKNHGCQRVKYGQCWVFAAVACTVLRCLGIPTRVVTNYNSAHDQNSNLLIEYFRNEFGEIQGDKSEMIWNFHCWVESWMTRPDLQPGYEGWQALDPTPQEKSEGTYCCGPVPVRAIKEGDLSTKYDAPFVFAEVNADVVDWIQQDDGSVHKSINRSLIVGLKISTKSVGRDEREDITHTYKYPEGSSEEREAFTRANHLNKLAEKEETGMAMRIRVGQSMNMGSDFDVFAHITNNTAEEYVCRLLLCARTVSYNGILGPECGTKYLLNLNLEPFSEKSVPLCILYEKYRDCLTESNLIKVRALLVEPVINSYLLAERDLYLENPEIKIRILGEPKQKRKLVAEVSLQNPLPVALEGCTFTVEGAGLTEEQKTVEIPDPVEAGEEVKVRMDLLPLHMGLHKLVVNFESDKLKAVKGFRNVIIGPA
In the case of B2, the percent blocked in assay [6] amounted to 93%; in assay [7], 6%; in [12], 52%. In addition, the mean inhibition (%) stood at 18% in assay [8], 14% in assay [9], 37% in assay [10] and 55% in assay [11].
